Measured values: patent US20220143178A1

Assays:
[1] = biological target: Pertuzumab-specific HER2 antigen (Rhinogen®); test: ELISA; antigen coated at 2 µg/ml, HRP anti-human light chain detection
[2] = biological target: Pertuzumab-specific HER2 antigen (Rhinogen®); test: SPR, Biacore T200; IgG captured by anti-human Fc on CM5 chip, antigen flowed over

- EC50 [1]: 0.0153 µg/mL
- Kd [2]: 2.81 nM
Substance: Pertuzumab (antibody)
